Here are results for four molecules from PMC9367177 (iScience, 2022).

B1: eCC6.33.5 (antibody, V domains shown)
VH: QVQLVQSGAEVKKPGSSVKVSCKAVGGTFSSSAIYWVRQAPGQGLEWMGGIIPILDIANYAQKFQGRVTITADKSTSTAFMELSSLRSEDTAVYYCALRNQWDLVVYWGQGTLVTVSS
VL: EIVLTQSPGTLSLSPGERATLSCHASQSVSSSYLAWYQQKPGQAPRLLIYGAESRATGIPDRFSGSGSGTDFTLTISRLEPEDFAVYYCQHYGSSTWTFGQGTKLEIK
notes: copies: 2 + 2
B2: eCC6.33.6 (antibody, V domains shown)
VH: QVQLVQSGAEVKKPGSSVKVSCKAPGGTFSSSAISWVRQAPGQGLEWMGGIIPILDITTYAQKFQGRVTITADKSTSTAFMELSSLRSEDTAVYYCALRNQWDLLIYWGQGTLVTVSS
VL: EIVLTQSPGTLSLSPGERATLSCRASQSVSSHYLAWYQQKPGQAPRLLIYGASSRYTGIPDRFSGSGSGTDFTLTISRLEPEDFAVYYCQHYGSSHWTFGQGTKLEIK
notes: copies: 2 + 2
B3: eCC6.33.9 (antibody, V domains shown)
VH: QVQLVQSGAEVKKPGSSVKVSCKSSGGTFSSSAYSWVRQAPGQGLEWMGTIIPILDITNYAQKFQGRVTITADKSTSTAFMELSSLRSEDTAVYYCAQRNQWDLIVYWGQGTLVTVSS
VL: EIVLTQSPGTLSLSPGERATLSCRASQWVSSSYIAWYQQKPGQAPRLLIYGAESRATGIPDRFSGSGSGTDFTLTISRLEPEDFAVYYCQHYGSSSWTFGQGTKLEIK
notes: copies: 2 + 2
B4: eCC6.30.9 (antibody, V domains shown)
VH: QVQLVQSGAEVKKPGSSVKVSCKASGGIFSIYAITWVRQAPGQGLEWMGAIIPIIGTANYAQKFQGRVTITADKSTSTAYMELSSLRSEDTAVYYCARDFRYCSSTRCYFNFDPWGQGTLVTVSS
VL: DIQMTQSPSSLSASVGDRVTITCRASQSISNYLNWYQQEAGKAPKLLIYTASSLQSGVPSRFSGSGSGTDFTLTISSLQPEDFATYYCQQSYSTPRTFGQGTKVDIK
notes: copies: 2 + 2

In this assay the target is T1, SARS-CoV-2 RBD (Wuhan-1) (SARS-CoV-2, Wuhan-1, UniProt P0DTC2).
T1 construct: source: Expi293, transfected, purified (Ni-NTA, SEC)
As to the kind of experiment: SPR. As to conditions: both partners purified.
Turning to B1, the affinity, expressed as Kd, was 17.3 nM; the koff was determined as 0.00411 s⁻¹; the kon stood at 237000 M⁻¹ s⁻¹.
In turn, B2 registered a Kd of 13.3 nM, a koff of 0.00167 s⁻¹ and a kon of 126000 M⁻¹ s⁻¹.
Take B3: the Kd was found to be 14.3 nM, the koff was determined as 0.00218 s⁻¹ and the kon is 153000 M⁻¹ s⁻¹.
As for B4, binding was characterised by a dissociation constant (Kd) of 0.0788 nM, the koff was 0.000202 s⁻¹ and the kon was 2.57e+06 M⁻¹ s⁻¹.

The term Kd denotes the concentration at which binding is half-saturated. A low value points to a tighter complex. One may read the koff as the first-order rate constant of dissociation. A high value points to a short-lived complex. In general, kon refers to a measure of how fast the partners come together. High values mean faster complex formation, low ones slower complex formation.
